Data: the nanobody polyreactivity screen of Harvey et al. (2022)

Test: yeast display, Sf9 membrane polyspecificity reagent, FACS + sequencing; frameworks hold sequencing errors
Outline: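 Polyreactivity labels are assigned by the sorting gate from which each nanobody was recovered. The gates were low and high (top ~1%), set on anti-HA fluorescence for expression and streptavidin fluorescence for reagent binding. Before sorting, galactose-induced (36–48 hours) yeast display cells were stained for 1 hour at 4 °C with 10% biotinylated, detergent-solubilized Sf9 membrane reagent.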

| Sequence | polyreactivity (PSR sort gate) |
| --- | --- |
| QVQHVESGGGLVQAGGSLRLRCAASGRTFKKYAMGWYRQAPGKAWELVAAITGSGGSTYYADSVKGRFTFSRDNAKNTVYLQMNRLKPEDTAVYYCAAYAYGVWQSQDGGNYWGQGTQVTVSS | low polyreactivity |
| QVQLVESGGGLVQAGGSLRLSCAASGNTFFVYAMGWDRQAPGKERELVATITLNGGSTYYADSVKGRFTISRDNAKNTVYLQMNSLKPEDTAVYYCAVEPDVYPSWYYYVDYDYWGQGTQVTVSS | low polyreactivity |
| QVQLVESGGGLVQAGGSLRLSSAASGRTFYKYAMGWYRQAPGKERELVAAISWNGGSTYYADSVKGRFTISRDNAKNTVYLQMNSLKPEDTAVYYCNVVNQRSRTGDYWGQGTQVTVSS | high polyreactivity |
| QVQLVESGGGLVQAGGSLRLSCAASGFTFNRYAMGWYRQAPGKERELVAAITSGGRTYYADSVKGRFTISRDNAKNTVYLQMNSLKPEDTAVYYCATLYVRNVSGYDYWGQGTQVTVSS | high polyreactivity |
| QVHLVESGGGLVQAGGSLRLSCAASGSTIDIYDMGWYRQAPGKERELVAAISIGTYADSVKGRFTISRDNAKNTVYLQMNSLKPEDTAVYYCAAQTDTWGYGYDYWGQGTQVTVSS | high polyreactivity |
| QVQLVESGGGLVQAGGSLRLSCAASGSTFYAYAMGWYRQAPGKERELVAAIDSGGSTYYADSVKGRFTISRDNAKNTFYLEMNSLKPEDTAVYYCAVRHRYTRAYWGRDYWGQGTQVTVSS | low polyreactivity |
| QVQLVESGGGLVQAGGSLRLSCAASGRIFFGNAMGWYRLAPGKEREFVAAITWRGGNTYYADSVKGRFTISRDNAKNTVYLQMNSLKPEDTAVYDCNASPSEVRRRYDYWGQGTQVTVSS | high polyreactivity |
| QVQLVESAGGLVQAGGSLRLSCAASGRIFPYYAMGWYRQAPGKERELVAAITTDGGGTYYADSVKGRFTISRDNSKNTVYLQMNSMKPEDTAVYYCAVPSYQWYDPENYWGQGTQVTVSS | low polyreactivity |
| QVQLVESGGGLVQAGGSLRLNCAASGSIFDKNAMGWYRQAPGKERELVAAISRSGGSTYYADSVKGRFTISRDNAKNTVYLQMNSLKPEVTAVYYCNKYTNGRNFDYWGQGTQVTVSS | high polyreactivity |
| QVQLVESGGGLVQAGGSLLLSCAASGSTSQPYAMGWYRQAPGKERELVASITNGGITYYADSVKGRFTISRDNAKNTVYLQLNSLKPEVTAVYYCNADNVFEGYDRRSARACYRYYYWGQGTQVTVSS | low polyreactivity |
| QVQLVESGGGLVQAGGSLRLSCAASGRIFGYYTMGWYRQAPGKERELVAGITRRGGRTYYADSVKGRFTISRDNAKNTVYLQMNSLKPEDTAVYYCDVRSGVNFYYWGQGTQVTVSS | high polyreactivity |
| QVQLVESGGGLVQAGGSLRLSCAASGSIFEWYAMGWYRQAPGKERELVADISSVGSTYYADSVKGRFTISRDNAKNTVYLQMNSLKPEDTAVYYCNTSYIIWYDSWGQGTQVTVSS | low polyreactivity |
| QVQLVESGGGLVQAGGSLRLSCAASGFIFYRYAMGWYRQAPGKERELVAAISYSGGSTYYADSVKGRFTISRDNAKNTVYLQMNSLKPEDTAVYYCAAGSKYRYDYWGQGTQVTVSS | high polyreactivity |
| QVQLVESGGGLVQAGGSLRLSCAASGITFGWYAMGWYRQAPGKERELVAAISTGSSTYYADSVKGRFTISRDNAKNTVYLQMNSLKPEDTAVYYCAAYYGISFDYWGQGSQVTVSS | high polyreactivity |
| QVQLVESAGGLVQAGGSLRLSCAASGRNFYRNAMGWYRQAPGKERELVAAISYSGGSTYYADSVKGRFTISRDNAKNTVYLQMNSLKPEDTAVYYFAAAGDRWGNYWGQGTLVTVSS | high polyreactivity |
| QVQLVESGGGLVQAGGSLRLSCAASGSTFPYYAMGWYRQATGKERELVAAISSGGRTTYADSVKGRFTISRDNAKNTVYLQMNSLKPEDTAVYYCNRRYTHGGFSKYEYWGQGTQVTVSS | high polyreactivity |
| QVQLVESGGGLVQAGGSLRLSCAASGRIFKTYTMGWYRQAPGKERELVAVITSGGGTYYADSVKGRFTISRDNAKNTVYLQMNSLKPEDTAVYYCAARGLESPYGYWGQGTQVTVSS | low polyreactivity |
